Several values for one entry are separate records, joined by “and”; a condition that tells them apart may be missing. Equal entries are not always repeated. Entries after “also recorded” stand apart in the source; their conditions may differ.
Experiments:
[1] = test system: NOD mice receiving spleen cells from diabetic donors; test: Adoptive transfer of diabetes in NOD mice; assay type: in vivo
Description: For the adoptive transfer of diabetes experiments, NOD mice were obtained from Taconic Farms (Germantown, N.Y.) or from the Joslin Diabetes Center (Boston, Mass.). Spontaneously diabetic (D) females of recent onset (13–20 weeks of age) were used as spleen cell donors and 8 week old nondiabetic (Y) females served as recipients. Spleen cells from 4 week old nondiabetic (Y) female donors which fail to transfer disease were used as a negative control.
Recipient mice were placed on acidified water (1:8400 dilution of concentrated HCl in water) one week prior to sublethal irradiation (775 rad) performed in split doses (300 rad, 300 rad, and 175 rad) on each of three days (day −2, −1, and the day of transfer), in order to minimize any incidence of intestinal infection subsequent to high dose irradiation (Gamma Cell 1000 Cesium ^137 source, Nordion International, Inc., Ontario, Canada). Spleens were harvested from diabetic donors or from nondiabetic controls, cell suspensions made and red cells lysed with Hemolytic Geys solution. […] Another group received PBS alone without cells transferred. The fusion protein LFA-3Ig (LFA-3TIP) was isolated and purified as described in PCT US92/02050 and Miller et al., 1993 [36]. […] Diabetes onset was monitored as described above.

[2] = test system: dual responder allergic sheep; test: Sheep model of airways hyper-responsiveness (Ascaris suum antigen challenge); assay type: in vivo
Procedure: Experiments were performed essentially as described by Abraham et al.. […] To measure breathing mechanics and physical changes in the airways, the sheep were restrained in a prone position with heads immobilized. A balloon catheter was advanced through one nostril under topical anesthesia with 2% lidocaine solution to the lower esophagus, and a cuffed endotracheal tube was advanced through the other nostril (using a flexible fiberoptic bronchoscope as a guide) for the measurement of airway mechanics and during aerosol challenges. Pleural pressure was estimated with the esophageal balloon catheter (filled with 1 ml of air) positioned 5–10 cm from the gastroesophageal junction. In this position, end expiratory pleural pressure ranged between −2 and −5 cm H2O. Once the balloon was placed, it was secured so that it remained in position for the duration of the experiment. Lateral pressure in the trachea was measured with a sidehole catheter, (inner diam. 2.5 mm) advanced through and positioned distal to the tip of the endotracheal tube. Transpulmonary pressure (the difference between tracheal and pleural pressure) was measured with a differential pressure transducer catheter system (MP45, Validyne, Northridge, Calif.). […] Pulmonary resistance (RL) was measured by connecting the proximal end of the endotracheal tube to a Fleich pneumotachograph (Dyna Sciences, Blue Bell Pa.). Signals indicating flow and transpulmonary pressure were recorded on an oscilloscope recorder (Model DR-12; Electronics for Medicine, White Plains, N.Y.) linked to a computer for automatic calculation of pulmonary resistance (RL) from transpulmonary pressure, respiratory volume (obtained by digital integration) and flow by the mid-volume technique, analyzed from 5–10 breaths. Thoracic gas volume (Vtg) was measured immediately after determination of RL in a constant volume body plethysmograph. Specific lung resistance (SRL) was calculated from these values (SRL=Vtg×RL).
Airway responsiveness was determined by performing dose response curves to inhaled carbachol. The dose response curves were plotted using measurements of SRL taken immediately after inhalation of buffer (PBS) alone and after each consecutive administration of 10 breaths of increasing concentrations of carbachol in PBS. The concentrations of carbachol were 0.25%, 0.5%, 1.0%, 2.0% and 4.0% wt/vol in PBS. The provocation test was discontinued when SRL increased over 400% from the post-PBS value or after the highest carbachol concentration had been administered. Airway responsiveness was determined by calculating from the dose response curves the cumulative carbachol dose in breath units (BU) that increased specific lung resistance 400% over the post buffer value (PD400%). One breath unit was defined as one breath of a 1% wt/vol carbachol solution.
Each sheep was subjected to a trial as a control in which a placebo (PBS without additive) was used as a pretreatment 30 minutes before allergen challenge with Ascaris suum antigen (Greer Diagnostics, Lenoir, N.C.). The antigen solution was delivered as an aerosol using a disposable medical nebulizer (RAINDROP®, Puritan Bennett, Lenexa, Kans.) that provided an aerosol with a mass median aerodynamic diameter of 3.2 μM (geometric SD 1.9) as determined by an Andersen cascade impactor. The Ascaris suum extract was diluted in PBS to a concentration of 82,000 Protein Nitrogen Units(PNU)/ml. The output of the nebulizer was directed into a plastic T-tube, one end of which was connected to the inspiratory port of a Harvard respirator. A dosimeter connected to the nebulizer consisting of a solenoid valve and a 20 psi compressed air source and the solenoid valve was activated at the beginning of the inspiratory cycle of the Harvard respirator for one second. The aerosol delivered at a tidal volume of 500 ml and a rate of 20 breaths per min. for 20 min. Each sheep was challenged with an equivalent dose of antigen (400 breaths) in the control and VCAM1-IgG1 trials. […]

CTT VLA4 on CTT PBLs = test: FACS analysis of binding of anti-VLA-4 monoclonal antibodies to CTT peripheral blood mononuclear leukocytes; set-up: species or system cotton top tamarin
Procedure: Blood samples (3 ml) from CTTs were heparinized and the CTT peripheral blood mononuclear leukocytes (PBLs) were isolated using a Ficoll-Hypaque gradient (Pharmacia) according to the manufacturer's instructions for isolation of human PBLs. CTT PBLs were examined for their ability to bind to the murine anti-human VLA-4 monoclonal antibodies HP1/2 and HP2/1 by FACS analysis using a Becton Dickenson FACStar and standard techniques (see, e.g., Lobb et al., 1991a).

[3] = test system: cotton top tamarins (CTTs) exhibiting symptoms of spontaneous colitis; test: Cotton top tamarin trials: acute inflammation index from colon biopsies; assay type: in vivo; set-up: Day 0 AII (acute inflammation index) / Day 10 AII (acute inflammation index): scale not given here; details: for Day 0 AII (acute inflammation index) / Day 10 AII (acute inflammation index): individual treated CTTs
Procedure: Five CTTs received HP1/2 and five received placebo, by intravenous injection. The CTTs receiving HP1/2 were injected with 1 mg HP1/2 per day (i.e., about 2 mg/kg/day, based on approximate half-kilogram weight of a CTT) for eight days (on Days 0, 1, 2, 3, 4, 5, 6, and 7 of the trial). Colon tissue samples obtained from the animals were biopsied every other day (on Days 0, 2, 4, 6, 8, and 10 of the trial). Data from the biopsies were used to determine an acute inflammation index for each animal, giving a semi-quantitative analysis of the course of the colitis. (See, Madara et al..) The inflammation indices before the trial began (Day 0) and at the end of the trial at Day 10 are set forth in Table II, below: (“Treated CTTs” received antibody-HP1/2; “Control CTTs” received placebo) The trial described in Example III was repeated using 14 CTTs, 7 receiving HP1/2 and 7 receiving placebo.

VCAM-1-expressing cells = test: Leukocyte adhesion to VCAM-1-expressing cells; assay type: cell-based
VLA-4 = VLA-4 (Homo sapiens, UniProt P13612); test: VLA-4-mediated T cell activation; assay type: cell-based
[4] = 15 mg aerosol 2, 8 and 24 h after antigen challenge, listed as VCAM-Ig
[5] = 30 mg aerosol 2 and 24 h after antigen challenge (optimal dose), listed as VCAM-Ig
[6] = 30 mg aerosol 30 min before and 8 h after antigen challenge, listed as VCAM-Ig
[7] = 30 mg aerosol 30 min before antigen challenge
[8] = 60 mg aerosol 30 min before antigen challenge, listed as VCAM-Ig

VLA-4, sequence (P13612 34-1032): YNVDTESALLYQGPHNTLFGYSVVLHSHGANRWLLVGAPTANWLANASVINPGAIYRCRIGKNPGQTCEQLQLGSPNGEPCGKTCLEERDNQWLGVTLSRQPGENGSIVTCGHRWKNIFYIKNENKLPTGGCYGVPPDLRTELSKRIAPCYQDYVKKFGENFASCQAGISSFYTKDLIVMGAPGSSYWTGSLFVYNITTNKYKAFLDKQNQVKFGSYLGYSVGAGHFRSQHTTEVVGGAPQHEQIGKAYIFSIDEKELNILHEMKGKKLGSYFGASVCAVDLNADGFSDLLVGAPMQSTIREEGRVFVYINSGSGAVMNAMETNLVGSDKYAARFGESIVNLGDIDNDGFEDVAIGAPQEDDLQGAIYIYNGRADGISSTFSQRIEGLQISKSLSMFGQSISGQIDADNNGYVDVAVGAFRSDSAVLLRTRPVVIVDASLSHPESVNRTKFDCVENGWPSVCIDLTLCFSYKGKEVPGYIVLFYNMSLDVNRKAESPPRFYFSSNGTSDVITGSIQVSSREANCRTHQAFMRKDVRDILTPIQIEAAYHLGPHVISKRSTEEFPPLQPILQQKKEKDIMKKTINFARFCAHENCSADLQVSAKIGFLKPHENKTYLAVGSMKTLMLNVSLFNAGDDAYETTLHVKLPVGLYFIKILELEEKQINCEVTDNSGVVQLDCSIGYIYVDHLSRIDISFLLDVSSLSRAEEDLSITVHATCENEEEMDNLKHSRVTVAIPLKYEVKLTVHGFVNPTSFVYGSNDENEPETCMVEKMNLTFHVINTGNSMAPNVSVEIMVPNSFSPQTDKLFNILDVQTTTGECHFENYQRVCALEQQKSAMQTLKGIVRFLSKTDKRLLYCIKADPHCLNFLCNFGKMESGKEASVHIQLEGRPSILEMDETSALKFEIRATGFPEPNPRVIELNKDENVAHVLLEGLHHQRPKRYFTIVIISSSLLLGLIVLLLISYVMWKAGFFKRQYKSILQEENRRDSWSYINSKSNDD
VLA-4, sequence (P05556 21-798 partner): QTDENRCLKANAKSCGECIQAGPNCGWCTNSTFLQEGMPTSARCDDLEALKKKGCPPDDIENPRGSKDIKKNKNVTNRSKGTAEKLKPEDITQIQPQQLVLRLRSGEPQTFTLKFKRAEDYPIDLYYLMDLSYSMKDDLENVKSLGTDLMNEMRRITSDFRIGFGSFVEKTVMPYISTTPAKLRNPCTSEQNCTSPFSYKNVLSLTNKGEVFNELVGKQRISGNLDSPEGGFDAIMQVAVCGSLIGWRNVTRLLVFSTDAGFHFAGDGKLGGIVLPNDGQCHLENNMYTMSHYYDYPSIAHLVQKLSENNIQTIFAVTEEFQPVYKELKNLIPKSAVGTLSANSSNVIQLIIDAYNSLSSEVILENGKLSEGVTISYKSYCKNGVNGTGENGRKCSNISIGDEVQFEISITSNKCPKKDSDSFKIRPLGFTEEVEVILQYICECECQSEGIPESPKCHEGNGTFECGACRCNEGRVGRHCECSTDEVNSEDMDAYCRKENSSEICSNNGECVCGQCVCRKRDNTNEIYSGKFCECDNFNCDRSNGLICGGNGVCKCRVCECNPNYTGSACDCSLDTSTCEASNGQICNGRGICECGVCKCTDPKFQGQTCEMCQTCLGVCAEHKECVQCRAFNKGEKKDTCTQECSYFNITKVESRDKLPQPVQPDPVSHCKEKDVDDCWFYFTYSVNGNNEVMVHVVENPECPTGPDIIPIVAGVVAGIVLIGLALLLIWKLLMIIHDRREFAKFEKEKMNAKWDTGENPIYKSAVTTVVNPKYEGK

In the case of “VCAM 2D-IgG: soluble form of VCAM1: two N-terminal domains of VCAM1 fused to human IgG1 heavy chain constant region (hinge, CH2, CH3); SEQ ID NO: 5/12”, the “onset of diabetes in recipients of cells from diabetic donor mice” value ([1]; 100 μg i.p. through day 17) is reported as “significantly inhibits the onset of diabetes”, the “serum level of fusion protein (ELISA)” value ([1]; 100 μg/0.2 ml i.p. twice weekly through day 17) is reported as “sufficient to saturate VLA4-positive cells” and the incidence of diabetes ([1]; by day 30 post-transfer, recipients of cells from diabetic donors, 100 μg i.p. through day 17, n=5) is reported as 60%. The “airways hyper-responsiveness (AHR)” value [2, 4] was “blockage of the AHR; also recorded: inhibition of AHR”, the “late phase response (LPR)” value [2, 4] was “partial blockage; also recorded: significant but partial inhibition” and the “airways hyper-responsiveness (AHR)” value [2, 5] was “complete blockage; also recorded: complete inhibition”. For the same molecule, the “late phase response (LPR)” value [2, 5] was “complete blockage; also recorded: complete inhibition”, the “airways hyper-responsiveness (AHR)” value [2, 6] was “no blockage; also recorded: no inhibition” and the “late phase response (LPR)” value [2, 6] was “blocked completely; also recorded: complete inhibition”. The “airways hyper-responsiveness (AHR)” value [2, 7] was “no effect”, the “late phase response (LPR)” value [2, 7] was “significant but partial inhibition” and the “airways hyper-responsiveness (AHR)” value [2, 8] was “blocked; also recorded: inhibition of AHR”. For the same molecule, the “late phase response (LPR)” value [2, 8] was “partial blockage; also recorded: significant but partial inhibition” and the “late phase response (LPR) versus placebo control” value ([2]; all dosing regimens, ten animals) was “partial or complete inhibition”.

B1: HP1/2: murine anti-human VLA-4 monoclonal antibody (IgG1) obtained from Biogen, Inc.; VH/VK in SEQ ID NO: 1-4 (antibody, listed as Mus musculus, V domains shown)
VH: EVKLQQSGAELVKPGASVKLSCTASGFNIKDTYMHWVKQRPEQGLEWIGRIDPASGDTKYDPKFQVKATITADTSSNTAWLQLSSLTSEDTAVYYCADGMWVSTGYALDFWGQGTTVTVSS
VL: SIVMTQTPKFLLVSAGDRVTITCKASQSVTNDVAWYQQKPGQSPKLLIYYASNRYTGVPDRFTGSGYGTDFTFTISTVQAEDLAVYFCQQDYSSPYTFGGGTKLEI
B1 was tested, and the “binding to CTT PBLs” value (CTT VLA4 on CTT PBLs) was “bound”, the “change in acute inflammation index” value ([3]; Example III, Day 0 to Day 10) was “significant (p<0.01) decrease” and the “Day 0 AII (acute inflammation index)” value ([3]; Example III, before the trial began, 1 mg HP1/2 per day i.v. Days 0-7) was 2 (3×) and 1 (2×). For the same molecule, the “Day 10 AII (acute inflammation index)” value ([3]; Example III, end of trial, 1 mg HP1/2 per day i.v. Days 0-7) was 1 and 0 (4×), the “Day 0 AII, MEAN” value ([3]; Example III, mean of 5 treated CTTs, before the trial began) was 1.6 and the “Day 10 AII, MEAN” value ([3]; Example III, mean of 5 treated CTTs, end of trial) was 0.2. The “Day 0 AII (acute inflammation index)” value ([3]; Example IV (repeat trial), Day 0) was 2, the “Day 10 AII (acute inflammation index)” value ([3]; Example IV (repeat trial), Day 10) was 0 (5×) and 1 and 2 and the “change in acute inflammation” value ([3]; Example IV, Day 0 to Day 10) was “significant decrease”. For the same molecule, the “Day 0 AII, MEAN” value ([3]; Example IV, mean of 7 treated CTTs, Day 0) was 2.0, the “Day 10 AII, MEAN” value ([3]; Example IV, mean of 7 treated CTTs, Day 10) was 0.43 and the “inflammation of biopsied intestinal tissue” value ([3]; summary statement) was “significant reduction in inflammation”. For the same molecule, the “leukocyte adhesion to VCAM-1-expressing cells” value (VCAM-1-expressing cells) was “block” and the “VLA-4-mediated T cell activation” value (VLA-4) was “not to promote”.
